Positions count from the first letter of the chain named.
B1: hCE115HAuPA27/GLS//GCH065 (bispecific antibody, human IgG1, kappa, N297A)
heavy 1: QDGNEEMGGITQTPYKVSISGTTVILTLSGRSDNHQVQLVESGGGVVQPGRSLRLSCAASGFTFSNAWMHWVRQAPGKGLEWVAQIKAKSNNYATYYAESVKGRFTISRDDSKNSLYLQMNSLKTEDTAVYYCRYVHYGAYYGVDAWGQGTTVTVSSASTKGPSVFPLAPSSKSTSGGTAALGCLVKDYFPEPVTVSWNSGALTSGVHTFPAVLQSSGLYSLSSVVTVPSSSLGTQTYICNVNHKPSNTKVDKKVEPKSCDKTHTCPPCPAPELRGGPKVFLFPPKPKDTLMISRTPEVTCVVVDVSHEDPEVKFNWYVDGVEVHNAKTKPREEQYASTYRVVSVLTVLHQDWLNGKEYKCKVSNKALPAPIEKTISKAKGQPREPQVYTLPPSRKEMTKNQVSLTCLVKGFYPSDIAVEWESNGQPENNYKTTPPYLDSDGSFFLYSKLTVDKSRWQQGNVFSCSVMHEALHNHYTQKSLSLSP
light 1: DIVMTQSPLSLPVTPGEPASISCRSSQSLVHSNRNTYLHWYQQKPGQAPRLLIYKVSNRFSGVPDRFSGSGSGTDFTLKISRVEAEDVGVYYCGQGTQVPYTFGQGTKLEIKRTVAAPSVFIFPPSDEQLKSGTASVVCLLNNFYPREAKVQWKVDNALQSGNSQESVTEQDSKDSTYSLSSTLTLSKADYEKHKVYACEVTHQGLSSPVTKSFNRGEC
heavy 2: QVQLVQSGAEVKKPGASVTVSCKASGYTFTDYEMHWIRQPPGEGLEWIGAIDGPTPDTAYSEKFKGRVTLTADKSTSTAYMELSSLTSEDTAVYYCTRFYSYTYWGQGTLVTVSSASTKGPSVFPLAPSSKSTSGGTAALGCLVKDYFPEPVTVSWNSGALTSGVHTFPAVLQSSGLYSLSSVVTVPSSSLGTQTYICNVNHKPSNTKVDKKVEPKSCDKTHTCPPCPAPELRGGPKVFLFPPKPKDTLMISRTPEVTCVVVDVSHEDPEVKFNWYVDGVEVHNAKTKPREEQYASTYRVVSVLTVLHQDWLNGKEYKCKVSNKALPAPIEKTISKAKGQPREPQVYTLPPSREEMTKNQVSLTCLVKGFYPSDIAVEWESNGQPENNYKTTPPYLDSDGSFFLYSKLTVDKSRWQQGNVFSCSVMHEALHNHYTQESLSLSP
light 2: B1 light 1 with S28P
B2: ANuPA04/GLS//GCH065 (bispecific antibody, human IgG1, kappa, N297A)
heavy 1: QDGNEEMGGGSGGGSGGGSLSGRSDNHGGGSQVQLVESGGGLVQPGRSLRLSCAASGFTFSNAWMHWVRQAPGKGLEWVAQIKDKANGYNAYYAESVKGRFTISRDDSKNSIYLQMNSLKTEDTAVYYCRYVHYTTYAGFSYKFGVDAWGQGTTVTVSSASTKGPSVFPLAPSSKSTSGGTAALGCLVKDYFPEPVTVSWNSGALTSGVHTFPAVLQSSGLYSLSSVVTVPSSSLGTQTYICNVNHKPSNTKVDKKVEPKSCDKTHTCPPCPAPELRGGPKVFLFPPKPKDTLMISRTPEVTCVVVDVSHEDPEVKFNWYVDGVEVHNAKTKPREEQYASTYRVVSVLTVLHQDWLNGKEYKCKVSNKALPAPIEKTISKAKGQPREPQVYTLPPSRKEMTKNQVSLTCLVKGFYPSDIAVEWESNGQPENNYKTTPPYLDSDGSFFLYSKLTVDKSRWQQGNVFSCSVMHEALHNHYTQKSLSLSP
light 1: B1 light 1
heavy 2: B1 heavy 2
light 2: B1 light 1 with S28P
B3: AN/GLS//GCH065 (bispecific antibody, human IgG1, kappa, N297A)
heavy 1: QVQLVESGGGLVQPGRSLRLSCAASGFTFSNAWMHWVRQAPGKGLEWVAQIKDKANGYNAYYAESVKGRFTISRDDSKNSIYLQMNSLKTEDTAVYYCRYVHYTTYAGFSYKFGVDAWGQGTTVTVSSASTKGPSVFPLAPSSKSTSGGTAALGCLVKDYFPEPVTVSWNSGALTSGVHTFPAVLQSSGLYSLSSVVTVPSSSLGTQTYICNVNHKPSNTKVDKKVEPKSCDKTHTCPPCPAPELRGGPKVFLFPPKPKDTLMISRTPEVTCVVVDVSHEDPEVKFNWYVDGVEVHNAKTKPREEQYASTYRVVSVLTVLHQDWLNGKEYKCKVSNKALPAPIEKTISKAKGQPREPQVYTLPPSRKEMTKNQVSLTCLVKGFYPSDIAVEWESNGQPENNYKTTPPYLDSDGSFFLYSKLTVDKSRWQQGNVFSCSVMHEALHNHYTQKSLSLSP
light 1: B1 light 1
heavy 2: B1 heavy 2
light 2: B1 light 1 with S28P
B4: ANGS/GLS//GCH065 (bispecific antibody, human IgG1, kappa, N297A)
heavy 1: QDGNEGGGSGGGSQVQLVESGGGLVQPGRSLRLSCAASGFTFSNAWMHWVRQAPGKGLEWVAQIKDKANGYNAYYAESVKGRFTISRDDSKNSIYLQMNSLKTEDTAVYYCRYVHYTTYAGFSYKFGVDAWGQGTTVTVSSASTKGPSVFPLAPSSKSTSGGTAALGCLVKDYFPEPVTVSWNSGALTSGVHTFPAVLQSSGLYSLSSVVTVPSSSLGTQTYICNVNHKPSNTKVDKKVEPKSCDKTHTCPPCPAPELRGGPKVFLFPPKPKDTLMISRTPEVTCVVVDVSHEDPEVKFNWYVDGVEVHNAKTKPREEQYASTYRVVSVLTVLHQDWLNGKEYKCKVSNKALPAPIEKTISKAKGQPREPQVYTLPPSRKEMTKNQVSLTCLVKGFYPSDIAVEWESNGQPENNYKTTPPYLDSDGSFFLYSKLTVDKSRWQQGNVFSCSVMHEALHNHYTQKSLSLSP
light 1: B1 light 1
heavy 2: B1 heavy 2
light 2: B1 light 1 with S28P
B5: hCE115HA/GLSuPA04//GCH065 (bispecific antibody, human IgG1, kappa, N297A)
heavy 1: QVQLVESGGGVVQPGRSLRLSCAASGFTFSNAWMHWVRQAPGKGLEWVAQIKAKSNNYATYYAESVKGRFTISRDDSKNSLYLQMNSLKTEDTAVYYCRYVHYGAYYGVDAWGQGTTVTVSSASTKGPSVFPLAPSSKSTSGGTAALGCLVKDYFPEPVTVSWNSGALTSGVHTFPAVLQSSGLYSLSSVVTVPSSSLGTQTYICNVNHKPSNTKVDKKVEPKSCDKTHTCPPCPAPELRGGPKVFLFPPKPKDTLMISRTPEVTCVVVDVSHEDPEVKFNWYVDGVEVHNAKTKPREEQYASTYRVVSVLTVLHQDWLNGKEYKCKVSNKALPAPIEKTISKAKGQPREPQVYTLPPSRKEMTKNQVSLTCLVKGFYPSDIAVEWESNGQPENNYKTTPPYLDSDGSFFLYSKLTVDKSRWQQGNVFSCSVMHEALHNHYTQKSLSLSP
light 1: QDGNEEMGGGSGGGSGGGSLSGRSDNHGGGSDIVMTQSPLSLPVTPGEPASISCRSSQSLVHSNRNTYLHWYQQKPGQAPRLLIYKVSNRFSGVPDRFSGSGSGTDFTLKISRVEAEDVGVYYCGQGTQVPYTFGQGTKLEIKRTVAAPSVFIFPPSDEQLKSGTASVVCLLNNFYPREAKVQWKVDNALQSGNSQESVTEQDSKDSTYSLSSTLTLSKADYEKHKVYACEVTHQGLSSPVTKSFNRGEC
heavy 2: B1 heavy 2
light 2: B1 light 1 with S28P
B6: hCE115HA/GLSGS//GCH065 (bispecific antibody, human IgG1, kappa, N297A)
heavy 1: B5 heavy 1
light 1: QDGNEGGGSGGGSGGGSDIVMTQSPLSLPVTPGEPASISCRSSQSLVHSNRNTYLHWYQQKPGQAPRLLIYKVSNRFSGVPDRFSGSGSGTDFTLKISRVEAEDVGVYYCGQGTQVPYTFGQGTKLEIKRTVAAPSVFIFPPSDEQLKSGTASVVCLLNNFYPREAKVQWKVDNALQSGNSQESVTEQDSKDSTYSLSSTLTLSKADYEKHKVYACEVTHQGLSSPVTKSFNRGEC
heavy 2: B1 heavy 2
light 2: B1 light 1 with S28P
B7: ANuPA27/GLS//GCH065 (bispecific antibody, human IgG1, kappa, N297A)
heavy 1: QDGNEEMGGITQTPYKVSISGTTVILTLSGRSDNHQVQLVESGGGLVQPGRSLRLSCAASGFTFSNAWMHWVRQAPGKGLEWVAQIKDKANGYNAYYAESVKGRFTISRDDSKNSIYLQMNSLKTEDTAVYYCRYVHYTTYAGFSYKFGVDAWGQGTTVTVSSASTKGPSVFPLAPSSKSTSGGTAALGCLVKDYFPEPVTVSWNSGALTSGVHTFPAVLQSSGLYSLSSVVTVPSSSLGTQTYICNVNHKPSNTKVDKKVEPKSCDKTHTCPPCPAPELRGGPKVFLFPPKPKDTLMISRTPEVTCVVVDVSHEDPEVKFNWYVDGVEVHNAKTKPREEQYASTYRVVSVLTVLHQDWLNGKEYKCKVSNKALPAPIEKTISKAKGQPREPQVYTLPPSRKEMTKNQVSLTCLVKGFYPSDIAVEWESNGQPENNYKTTPPYLDSDGSFFLYSKLTVDKSRWQQGNVFSCSVMHEALHNHYTQKSLSLSP
light 1: B1 light 1
heavy 2: B1 heavy 2
light 2: B1 light 1 with S28P
B8: ANuPA20/GLS//GCH065 (bispecific antibody, human IgG1, kappa, N297A)
heavy 1: QDGNEEMGGITQTPYKVSISLSGRSDNHGGGSQVQLVESGGGLVQPGRSLRLSCAASGFTFSNAWMHWVRQAPGKGLEWVAQIKDKANGYNAYYAESVKGRFTISRDDSKNSIYLQMNSLKTEDTAVYYCRYVHYTTYAGFSYKFGVDAWGQGTTVTVSSASTKGPSVFPLAPSSKSTSGGTAALGCLVKDYFPEPVTVSWNSGALTSGVHTFPAVLQSSGLYSLSSVVTVPSSSLGTQTYICNVNHKPSNTKVDKKVEPKSCDKTHTCPPCPAPELRGGPKVFLFPPKPKDTLMISRTPEVTCVVVDVSHEDPEVKFNWYVDGVEVHNAKTKPREEQYASTYRVVSVLTVLHQDWLNGKEYKCKVSNKALPAPIEKTISKAKGQPREPQVYTLPPSRKEMTKNQVSLTCLVKGFYPSDIAVEWESNGQPENNYKTTPPYLDSDGSFFLYSKLTVDKSRWQQGNVFSCSVMHEALHNHYTQKSLSLSP
light 1: B1 light 1
heavy 2: B1 heavy 2
light 2: B1 light 1 with S28P

Target: CD3 on NFAT-RE-luc2-Jurkat cells (human, UniProt P07766 23-207)
Sequence (P07766 23-207): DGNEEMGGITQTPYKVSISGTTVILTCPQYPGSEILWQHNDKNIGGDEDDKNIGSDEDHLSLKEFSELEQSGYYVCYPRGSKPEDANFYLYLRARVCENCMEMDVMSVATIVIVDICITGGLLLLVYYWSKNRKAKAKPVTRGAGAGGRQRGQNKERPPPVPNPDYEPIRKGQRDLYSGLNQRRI
Test: cell-based or functional assay

Binder	increase rate due to the protease treatment (luciferase, uPA-treated / untreated), antibody 0.1 nM	increase rate due to the protease treatment (luciferase, uPA-treated / untreated), antibody 1 nM
B1	0.9 ratio	1.4 ratio
B2	1.9 ratio	3 ratio
B3	0.6 ratio	0.7 ratio
B4	1 ratio	1 ratio
B5	1.1 ratio	8.2 ratio
B6	1 ratio	0.9 ratio
B7	0.9 ratio	0.9 ratio
B8	1.5 ratio	2.2 ratio

— patent US20220401557A1 (Chugai, published 2022)
